Reference: patent publication US10851403B2, “Cyclin-dependent kinase substrate” (SYSMEX CORPORATION, priority 2017, dated 2020)
No end group written: not given here. *: point of attachment. Biotin = O=C1N[C@H]2[C@H](CS[C@H]2CCCCC(=O)*)N1; Ahx = NCCCCCC(=O)O

What was measured:
[1] = target: T1, CDK6/cyclin D3 (Homo sapiens, UniProt Q00534); experiment: CDK reactivity test 6 (Test Example 6), automated immunoassay system HISCL-800; assay type: biochemical; settings: 0.01 to 10 μg/mL CDK1/A2, CDK2/E1, CDK4/D3 or CDK6/D3; ATP; anti-phospho-antibody; 42° C. 3 minutes
T1 construct: purchased SignalChem
T1 sequence (Q00534 whole entry): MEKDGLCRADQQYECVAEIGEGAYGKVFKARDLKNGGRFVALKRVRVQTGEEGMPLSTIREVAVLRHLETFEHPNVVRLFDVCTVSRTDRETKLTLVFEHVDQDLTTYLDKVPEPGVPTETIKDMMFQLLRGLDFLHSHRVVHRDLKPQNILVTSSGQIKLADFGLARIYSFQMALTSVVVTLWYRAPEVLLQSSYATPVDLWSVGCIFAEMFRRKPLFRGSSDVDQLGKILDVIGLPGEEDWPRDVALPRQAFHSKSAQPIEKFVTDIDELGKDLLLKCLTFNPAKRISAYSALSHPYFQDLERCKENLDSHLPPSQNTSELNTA
T1 sequence (P30281 whole entry partner): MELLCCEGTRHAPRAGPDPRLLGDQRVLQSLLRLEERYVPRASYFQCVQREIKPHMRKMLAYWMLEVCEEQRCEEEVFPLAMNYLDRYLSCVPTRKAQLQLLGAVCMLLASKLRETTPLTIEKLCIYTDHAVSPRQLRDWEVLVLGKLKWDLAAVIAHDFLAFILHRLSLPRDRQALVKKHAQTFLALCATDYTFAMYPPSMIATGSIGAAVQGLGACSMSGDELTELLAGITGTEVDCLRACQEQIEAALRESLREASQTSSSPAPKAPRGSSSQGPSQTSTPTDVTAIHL
Procedure: The reactivity of the polypeptide (Polypeptide 28) obtained in Production Example 5 to CDK1, CDK2, CDK4 and CDK6 was examined using an automated immunoassay system (manufactured by Sysmex Corporation, HISCL-800). Specifically, it was performed as follows.
In a well of a plate, 30 μL of a CDK solution (composition: 0.01 to 10 μg/mL CDK/cyclin complex, 1% BSA, triethanolamine buffer solution (pH 7.5)) containing CDK1/cyclin A2, CDK2/cyclin E1, CDK4/cyclin D3 or CDK6/cyclin D3 (all manufactured by SignalChem) and 30 μL of a kinase reaction solution (composition: 4 μg/mL substrate peptide, 50 mM HEPES-NaOH buffer solution (pH 7.4), 15 mM MgCl2, 16 mM ATP) containing Polypeptide 28 as a substrate peptide were mixed, and the plate was incubated at 42° C. for 3 minutes. 30 μL (containing 0.15 μg of magnetic St-Ab beads) of a HISCL HBsAg R2 reagent (manufactured by Sysmex Corporation) was added to the well, and the plate was incubated at 42° C. for 2 minutes. The beads in the well were precipitated using a magnet, and the supernatant was removed. Then, a HISCL washing solution (manufactured by Sysmex Corporation) was added, and the beads were washed by shaking several times. […] Luminescence was detected with a luminometer, and the luminescence intensity was measured.

[2] = target: T2, CDK4/cyclin D3 (Homo sapiens, UniProt P11802); experiment: CDK reactivity test 3 (Test Example 3); assay type: biochemical; settings: luminescence intensity when using CDK6 set as 100%, HRP-labeled anti-FITC antibody
T2 construct: purchased SignalChem
T2 sequence (P11802 whole entry): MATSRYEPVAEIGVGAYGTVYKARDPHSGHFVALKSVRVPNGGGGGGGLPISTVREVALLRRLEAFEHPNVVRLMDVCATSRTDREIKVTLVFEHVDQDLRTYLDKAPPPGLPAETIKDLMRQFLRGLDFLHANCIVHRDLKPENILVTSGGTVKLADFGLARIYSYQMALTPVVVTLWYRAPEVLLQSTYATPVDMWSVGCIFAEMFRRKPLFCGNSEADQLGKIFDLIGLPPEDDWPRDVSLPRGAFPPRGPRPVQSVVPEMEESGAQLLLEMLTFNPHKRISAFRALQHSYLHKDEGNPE
T2 sequence (P30281 whole entry partner): as the sequence (P30281 whole entry partner) above
Procedure: The reactivity of the polypeptides obtained in Production Example 3 to CDK1, CDK2, CDK4 and CDK6 was examined. Specifically, it was performed as follows.
In a well of a hydrophilic filter plate, 30 μL of a CDK solution (composition: 10 μg/mL CDK/cyclin complex, 1% BSA, triethanolamine buffer solution (pH 7.5)) containing CDK1/cyclin A2, CDK2/cyclin E1, CDK4/cyclin D3 or CDK6/cyclin D3 (all manufactured by SignalChem) and 30 μL of a kinase reaction solution (composition: 4 μg/mL substrate peptide, 50 mM HEPES-NaOH buffer solution (pH 7.4), 15 mM MgCl2, 2 mM ATP-γS) containing any of Comparative Polypeptides 2 to 4 as a substrate peptide were mixed, and the plate was incubated at 37° C. for 1 hour with stirring at 900 rpm using a constant temperature shaker. The reaction solution was recovered by centrifugation (4° C., 2000 rpm, 5 minutes), and 28.6 μL of the reaction solution was dispensed into each well of a PCR plate. […] Luminescence was detected with a luminescence plate reader, and the luminescence intensity was measured. For each polypeptide, the relative value of the luminescence intensity when using other CDKs, in the case where the luminescence intensity when using CDK6 was set as 100%, was calculated.

relative value of the luminescence intensity [2] | Sequence | specific detection of CDK (luminescence intensity versus CDK concentration, FIG. 3) [1]
– | GAPWSPDPWDDGGGG ({Biotin-Ahx}-GAPWSPDPWDDGGGG) [Polypeptide 28, acidic-residue mutant of Polypeptide 3, N-terminal biotin via aminohexane linker] | a substrate capable of specifically detecting CDK6
Not detected | PYKISEGLPTPAKMAPRSRI (PYKISEGLPTPAKMAPRSRI-NH2; not fully specified (N-terminus)) [Comparative Polypeptide 4, Comparative Polypeptide 3 with the CDK4 phosphorylation site residue replaced with alanine; N-terminal biotin] | –
